Consider two molecules from patent US9969998B2, “Compositions of adenosine deaminase-2 (ADA2), variants thereof and methods of using same” (Halozyme, Inc., priority 2014, dated 2018).

Positions count from the first letter of the chain named. In names and notes the source's numbering stands.

A short description of series [1]: Stability of ADA activity in plasma. The format is in vitro ADME, mouse. To be noted: long incubation (e.g., 24 hours) in plasma. The protocol: For therapeutic uses, such as for treatment of tumors or cancers, it is desirable to administer to the subject a dosage of ADA2 that will maintain plasma adenosine deaminase (ADA) activity for a sufficient time for therapeutic effect. […] The plasma stability of any ADA2 described herein, such as a wildtype, variant or conjugate, can be determined by measuring the changes in enzymatic activity and/or other physical properties, before and after incubation in plasma, e.g., ex vivo mammalian plasma.
Stability can be assessed in vitro or in vivo. For example, stability can be tested after exposure to plasma for a desired length of time, which can be empirically determined or selected by a skilled artisan depending on the desired length of time. For example, the incubation time can be at least 1 hour, such as at least 2, 3, 4, 5, 10, 15, 20, 24, 30, 36, 48, 60, 72 hours or more. The protein can be directly administered systemically, such as intravenously, and activity can be assessed. In other examples, the protein can be subject to appropriate incubation conditions in vitro. In one example, the stability of ADA activity of any ADA2 provided herein can be measured after incubation at 37° C., in 25% ex vivo plasma or serum, such as human or non-human plasma or serum, for example, mouse plasma. […]

Another series concerns NK/T cells. Kind of series: rHuADA2 rescue of adenosine-mediated inhibition of NK/T cell proliferation. Type of series: cell-based, human. The protocol: A mixture of NK and T cells (NK/T) were prepared from healthy donor's peripheral blood mononuclear cells (PBMC). Briefly, 10×10^7 HumanPBMCs were cultured for 6-7 days in Stem cell growth medium (SCGM; Order No. 20802-0500, CellGenix, Freiburg, Germany) with 5% human serum from donors with blood type AB (human AB serum; Cat. No. 35-060-C1, Mediatech, Mannassas, Va.) in the presence of 20 ng/mL anti-CD3 eBioscience, San Diego, Calif.; Cat. No. 16-0039) and 500 IU/mL recombinant human interleukin 2 (rhIL-2; Cat. No. 200-02, PeproTech, Rocky Hill, N.J.). The cells were then cultured for an additional 2-3 weeks in SCGM in the presence of 500 IU/mL rhIL-2. NK/T cells cultured for 2-4 weeks were used in experiments.
NK/T cells (10,000 cells/well) were plated in 96 well white plates with clear bottoms in a total volume of 180 μL. The cells were treated with 20 μL rHuADA2 at concentrations resulting from 3-fold dilution series, to give a final rHuADA2 concentration of 100 nM, 30 nM, 10 nM, 3 nM, 1 nM, 0.3 nM, 0.1 nM, and 0.03 nm, and then each well also was treated with 20 μL of adenosine at 1 mM. After treatment, the NK/T cells were cultured, processed and luminescence measured as described above. The mean cell survival (%) was determined by comparison of the measured luminescence to control cells not treated with adenosine or rHuADA2.
Experiments also were performed to assess the effect of rHuADA2 to reverse adenosine-mediated inhibition of NK/T cell proliferation at various concentrations of adenosine. The experiments were conducted in a similar manner as described above, with final adenosine concentration of 1 mM, 100, 50, or 25 μM and final rHuADA2 concentration of 100 nM, 30 nM, 10 nM, 3 nM, 1 nM, 0.3 nM, 0.1 nM, and 0.03 nM.

For series [2] the following is noted: Daddona and Kelley (1981); cited from earlier work.
The subject of series [3] is CT26 murine colon cancer tumor. Kind of series: Tumor growth inhibition, CT26 syngeneic tumor model. The format is in vivo, BALB/c mice. The protocol: Forty-four (44) male BALB/c mice were inoculated subcutaneously with 5×10^6 murine colon cancer tumor cells (CT26, ATCC CRL-2638) in 0.1 mL injection volume per animal. Tumor volume was determined using digital calipers by caliper measurement of the length (L) and width (W) of the solid tumor masses. Tumor volume (TV) was calculated as: (L×W^2)/2. Tumors were allowed to grow and tumor bearing mice were staged until when the tumors were palpable and measured to be about 50-100 mm^3.
PEGylated rHuADA2-K374D (K371D by mature numbering) was prepared as described in Example 8.A, with minor modifications to generate a preparation in which approximately 100% of the molecules were PEGylated as assessed by SDS-PAGE.
For treatment, animals were randomized into four groups (n=8/group). CT26 tumor bearing mice were then injected intravenously (IV) every other day, at 3 mg/kg body weight, 10 mg/kg body weight or 30 mg/kg body weight doses of PEG-K374D (PEG-K371D by mature numbering) or vehicle control (buffer only) every other day. Tumor volume was measured at day 0 and 8 using caliper measurement as described above. […] One mouse from the vehicle group was excluded due to significant tumor growth inhibition.

[4] abbreviates: day 8; 3 mg/kg IV every other day.
The mark [5] stands for this setting: day 8; 10 mg/kg IV every other day.
[6] abbreviates: day 8; 30 mg/kg IV every other day.

B1: ADA2: wild-type human adenosine deaminase 2, mature form SEQ ID NO:5, homodimer (protein, listed as Homo sapiens)
chain: IDETRAHLLLKEKMMRLGGRLVLNTKEELANERLMTLKIAEMKEAMRTLIFPPSMHFFQAKHLIERSQVFNILRMMPKGAALHLHDIGIVTMDWLVRNVTYRPHCHICFTPRGIMQFRFAHPTPRPSEKCSKWILLEDYRKRVQNVTEFDDSLLRNFTLVTQHPEVIYTNQNVVWSKFETIFFTISGLIHYAPVFRDYVFRSMQEFYEDNVLYMEIRARLLPVYELSGEHHDEEWSVKTYQEVAQKFVETHPEFIGIKIIYSDHRSKDVAVIAESIRMAMGLRIKFPTVVAGFDLVGHEDTGHSLHDYKEALMIPAKDGVKLPYFFHAGETDWQGTSIDRNILDALMLNTTRIGHGFALSKHPAVRTYSWKKDIPIEVCPISNQVLKLVSDLRNHPVATLMATGHPMVISSDDPAMFGAKGLSYDFYEVFMGIGGMKADLRTLKQLAMNSIKYSTLLESEKNTFMEIWKKRWDKFIADVATK
modifications: ADA2 mature protein
For B1, the stability in plasma result in series [1] is reported as “more stable than ADA1”. Also, the “MS % (mean survival)” value in the series on NK/T cells (ADA2 0.03 nM, 25 μM Adenosine) was 81.7%; in the series with NK/T cells (ADA2 0.03 nM, 50 μM Adenosine) it was 71.2%; in the series with NK/T cells (ADA2 0.03 nM, 100 μM Adenosine), 45.9%; in the series with NK/T cells (ADA2 0.03 nM, 1 mM Adenosine), 15.6%; in the series with NK/T cells (ADA2 0.1 nM, 25 μM Adenosine), 89.6%; in the series with NK/T cells (ADA2 0.1 nM, 50 μM Adenosine), 76.6%. In addition, the “MS % (mean survival)” value is reported as 43.8% in the series with NK/T cells (ADA2 0.1 nM, 100 μM Adenosine); 16.3% in the series on NK/T cells (ADA2 0.1 nM, 1 mM Adenosine); 90.5% in the series with NK/T cells (ADA2 0.3 nM, 25 μM Adenosine); 64.8% with NK/T cells (ADA2 0.3 nM, 50 μM Adenosine); 57.8% with NK/T cells (ADA2 0.3 nM, 100 μM Adenosine); 18.3% in the series with NK/T cells (ADA2 0.3 nM, 1 mM Adenosine). The “MS % (mean survival)” value in the series with NK/T cells (ADA2 1 nM, 25 μM Adenosine) is on record as 99.3%; in the series with NK/T cells (ADA2 1 nM, 50 μM Adenosine), 80.2%; in the series with NK/T cells (ADA2 1 nM, 100 μM Adenosine) it was 71.7%; in the series on NK/T cells (ADA2 1 nM, 1 mM Adenosine), 22.6%; in the series on NK/T cells (ADA2 3 nM, 25 μM Adenosine) it was 107.4%; in the series on NK/T cells (ADA2 3 nM, 50 μM Adenosine) it was 94%. The “MS % (mean survival)” value in the series on NK/T cells (ADA2 3 nM, 100 μM Adenosine) was 91.6%; with NK/T cells (ADA2 3 nM, 1 mM Adenosine) it was 41.4%; in the series on NK/T cells (ADA2 10 nM, 25 μM Adenosine), 121.2%; with NK/T cells (ADA2 10 nM, 50 μM Adenosine), 105.9%; in the series with NK/T cells (ADA2 10 nM, 100 μM Adenosine) it was 108.3%; in the series with NK/T cells (ADA2 10 nM, 1 mM Adenosine), 67.1%. Also, the “MS % (mean survival)” value came to 117.2% in the series on NK/T cells (ADA2 30 nM, 25 μM Adenosine); 114.7% in the series on NK/T cells (ADA2 30 nM, 50 μM Adenosine); 114.4% with NK/T cells (ADA2 30 nM, 100 μM Adenosine); 79.1% in the series on NK/T cells (ADA2 30 nM, 1 mM Adenosine); 120.6% in the series with NK/T cells (ADA2 100 nM, 25 μM Adenosine); 116.9% in the series with NK/T cells (ADA2 100 nM, 50 μM Adenosine). Moreover, the “MS % (mean survival)” value was 109% in the series with NK/T cells (ADA2 100 nM, 100 μM Adenosine) and 96.3% in the series with NK/T cells (ADA2 100 nM, 1 mM Adenosine). Further, the “stability at higher temperature” value in series [2] was “substantially more stable at higher temperature compared to ADA1”.

B2: PEG-K374D: rHuADA2-K374D (SEQ ID NO:20) PEGylated on surface exposed lysines with linear PEG-20K (conjugate)
chain: B1 chain with K371D
modifications: linear PEG-20K on surface lysines; human ADA2 K371D, mature numbering
Consider B2, for which the “Average Tumor Volume” value is on record as 257.72 mm^3 in series [3] (3 mg/kg IV every other day; day 8); 207.84 mm^3 in series [3] (10 mg/kg IV every other day; day 8); 187.32 mm^3 in series [3] (30 mg/kg IV every other day; day 8); 257.72 mm^3 in series [3] (setting [4]); 207.84 mm^3 in series [3] (setting [5]); 187.32 mm^3 in series [3] (setting [6]). The “Tumor Growth Inhibition” value in series [3] (3 mg/kg IV every other day; day 8; vs vehicle) was determined as 50%; in series [3] (10 mg/kg IV every other day; day 8; vs vehicle), 63%; in series [3] (30 mg/kg IV every other day; day 8; vs vehicle), 68%. Besides, the “tumor growth inhibition (TGI)” value in series [3] (setting [4]) is on record as 50%; in series [3] (setting [5]), 63%; in series [3] (setting [6]), 68%.
